Measured values as given in the supplement of paper PMC10567573.

B1: LYSMD4 (parent)
chain: LLQRELAQEDSLNKLALQYGCKVA
B2: FAM50A (parent)
chain: HIFPASRWEPYDPEKKWDKYTIR

Variants of: B1
Assay: protein stability index of a GFP-peptide fusion (GPS, HEK-293T) (PSI 1-6); higher = more stable
Conditions: c terminus: a fixed tail appended
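Note: lentivirally expressed fusions sorted by FACS into six bins by GFP to DsRed ratio, PSI derived from sequencing read proportions per bin multiplied by bin number.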

Protein stability index, by site and new letter:
L2: P 2.31; E 2.92
A16: Q 1.86; E 1.65; N 1.98
L1: D 1.96; R 1.6; H 1.91; N 2.09
K14: Q 2.22; Y 2.06
R4: D 2.08; K 2.82; G 1.24; N 2.04
E5: S 1.87; K 1.76
S11: K 2.01; R 2.65; A 1.76
K22: P 3.45; G 2.93; N 2.65; R 1.29; Q 2.21
A7: Q 2.02; C 1.73; D 2.09; P 1.97; V 1.48; R 1.49
Q3: Y 1.3; N 2.3; S 3.41
A24: G 2.1
L12: D 4.13; N 3.52; T 3.48; A 2.5
L15: M 2.85; H 2.67; F 1.07; V 1.62
E9: Q 2.2; L 3.17; G 1.28; M 1.85; H 2.54; C 1.53; N 2.4; R 1.94; Y 1.9
V23: P 3.4; H 2.77; T 2.58; C 1.83; I 1.89; E 3.4
D10: L 2.1; F 1.46; K 1.86; G 1.9; Y 1.82
G20: K 1.62; Y 1.74; D 2.94; P 2.66; H 3.73
Q8: P 1.48; M 1.92; A 1.73; N 3.38; H 1.54; E 1.84; Y 2.21
L6: V 1.62; N 2.24; E 3; H 2.39; T 1.92; M 1.37; Y 1.92; I 1.52
L17: V 2.06; Y 1.18; E 1.82; K 2.5
Y19: T 3.17; N 3.4; V 2.02; F 2.06
Q18: V 2.25; I 2.4; K 2.42; P 2.95; Y 2.22
C21: V 1.85; H 2.89; P 2.59; T 3.03; N 3.29
N13: G 1.23; E 1.65; W 1.8; T 1.3; F 1.65

Variants of: B2
Assay: as above
Conditions: c terminus: native

Protein stability index of substitutions, site by site:
E14: N 2.42; D 2.02; V 1.59; A 2.66; L 2.1; M 2.38; H 1.76; I 2.68; K 2.27; W 1.65; T 1.96; Y 2.68
I2: E 2.95; P 2.15; N 3.19; C 2.74; D 2.28; K 2.48
R23: M 2.1; A 3.17; F 1.85; I 2.21; Q 2.12; W 1.72; G 2.59; T 1.87; H 2.2; L 2.54; V 2.27; E 2.04; N 2.27
P13: F 2.8; N 2.05; T 2.3; R 2; M 2.53; K 2.25; D 1.75; Q 1.74; E 1.86; V 2.72; H 2.19; S 2.1; I 3.04
K15: N 1.71; F 2.2; S 2.67; W 3; M 2.16; G 2.27; E 1.66; T 2.33; A 2.23; P 1.99; R 1.8
K19: G 2.84; S 1.89; C 1.81; V 1.31; D 2.24; R 2.6; L 2.04; E 2.53; Q 2.63; W 3.02; F 2.25
I22: L 2.25; S 2.72; Y 2.98; D 2.02; A 2.03; P 3.88; H 2.19; K 3.3; T 2.62; W 2.06; V 2.75; Q 2.91; E 2.25
S6: G 2.98; L 1.84; E 3.04; C 1.72; P 4.97; M 2.48; N 2.86; D 1.87; W 2
K16: S 2.6; F 3.28; P 2.48; H 1.72; M 1.71; E 2.79
T21: Y 2.71; V 2.55; Q 2.18; I 1.74; C 1.97; M 2.08; N 2.54; P 2.36
A5: G 2.14; R 1.9; F 2.24; M 1.54; S 3.2; L 1.58; K 2.31; Y 1.5; V 1.77
P4: K 2; M 1.59; C 1.69; D 2.22; T 3.16; N 2.71
Y20: T 3.05; Q 2.48; P 2.93; A 1.86; W 2.96; V 2.28; I 1.49; M 2.2; E 2.02; K 2.6; G 2.16
R7: I 1.48; C 1.85; W 1.22; G 2.5; N 2.38; M 2.6; Y 1.65; Q 2.47; S 3.31; E 3.47
F3: V 2.31; Y 2.1; P 2.62; A 3.12; D 3.92; E 2.75; M 1.74; I 2.57; L 2.63; C 2.54
E9: N 2.05; C 3.21; V 2.17; A 2.24; F 2.42; Q 2.2
P10: N 2.02; Q 2.12; R 2.7; C 3; M 1.82; I 1.24; W 1.58; V 1.94; Y 2.89; T 2.3; G 2.45
D12: T 2.11; V 3.47; E 2.15; I 1.79; P 1.69; R 2.07; N 2.08; F 2.48; Q 2.19; Y 1.75
W8: I 3.38; Q 4.11; G 3.72; R 3.54; K 2.96; F 2.17; C 3.11; P 3.92; V 3.62; T 4.03; N 3.88; E 3.6; H 3.46
Y11: E 2.37; W 2.11; K 3.01; T 2.42; N 2.67; C 2.48; F 2.18; R 4.26; H 2.35; M 2.65; S 2.83; Q 2.28; G 3.04; P 2.71
D18: K 3.01; F 1.55; H 2.58; I 2.48; C 2.61; R 2.01; G 2.28; E 3.2; T 2.37; L 2.08; M 1.92
W17: K 2.57; D 2.51; Q 3.14; N 2.54; F 2.9; R 2.68; V 2.62; M 2.61
H1: W 1.46; C 2.4; G 3.23; M 1.22; S 2.04; P 2.83; R 2.34
